This series concerns the target GST-RhHB1 (Rosa hybrida, UniProt A0A096YDU1 1-243). The experiment in a line: EMSA; 25 pM probe (so in the source), 3 ug protein; signal weakened by 10x and 100x unlabeled probe; Pierce EMSA kit, per manufacturer's instructions; buffer, salt, pH and temperature not given. Conditions: protein: recombinant; tags: GST (N-terminal, pGEX-2T); chain copies: 2; label: biotin (5' of S3); blunt. Background: A gel shift assay detects complexes by their altered migration in electrophoresis.

GST-RhHB1, sequence (A0A096YDU1 entry or part of it): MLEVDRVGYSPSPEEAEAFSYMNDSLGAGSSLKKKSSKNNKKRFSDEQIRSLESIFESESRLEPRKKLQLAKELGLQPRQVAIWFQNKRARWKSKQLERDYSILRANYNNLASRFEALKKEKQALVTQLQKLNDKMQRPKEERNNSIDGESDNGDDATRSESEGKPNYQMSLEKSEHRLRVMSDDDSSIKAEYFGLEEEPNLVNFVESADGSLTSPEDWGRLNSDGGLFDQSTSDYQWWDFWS

B1: RhLOX4 promoter probe (-1270 to -1303) (dsDNA)
DNA 1: AAGAGAATATTTTGAAATAATATTAGGAGTCTCT
DNA 2: AGAGACTCCTAATATTATTTCAAAATATTCTCTT
For B1, the binding result was “binds”.

These data come from article PMC7195446, “The RhHB1/RhLOX4 module affects the dehydration tolerance of rose flowers (Rosa hybrida) by fine-tuning jasmonic acid levels”.
